Where a chain is given by its changes, count along the chain named.

B1: 173 (protein)
chain: MTTRTRILTAFLSLLAANACAADAAPAAPHTVVLRAARMFDGASGKLVDHPQLTIVGNKIVRIAQGDKAEVPAGAEVVDLGDATLLPGFIDAHVHLSGQSSDNWYGDFFDNMMRFPAEQALYGAYYARITLEAGFTSVRDVGSTDWVALGLRNAIDAGKVPGPRMLVSNYAVGSTGGHADQDPVPPHKLPLAGPLQGVCNGPEECRAAVRYQIKYGANVIKFMPSGGVLSLSDPVDAPELSQDEMNAVIGESHAWGRKVAAHAHGDKAAKMAVAAGVDSIEHGSFIEDDTLRAMKAKNVYLVPTISAAAHVEEKIGTYPPVIAEKGRAAAAHLRQTFRHAVQIGVPIALGTDAGVGAHGSNAREFRYMVENGLTPAQALLAGTANAARLLGTFDRVGTLEAGKLADVVAVPGNPIADITVTERPLFVMKDGVVVRRDAVR
modifications: exemplary polypeptide
B2: 187 (protein)
chain: B1 chain with V184I, A308I, Y318F, L333M
modifications: exemplary polypeptide
B3: 192 (protein)
chain: B1 chain with V184I, A308I, Y318F, G354V
modifications: exemplary polypeptide
B4: 181 (protein)
chain: B1 chain with Y170F, V184I, A308I, Y318F
modifications: exemplary polypeptide
B5: 183 (protein)
chain: B1 chain with V184I, A308I, Y318F, A330L
modifications: exemplary polypeptide
B6: 186 (protein)
chain: B1 chain with V184I, A308I, Y318F, L333I
modifications: exemplary polypeptide
B7: 188 (protein)
chain: B1 chain with V184I, A308I, Y318F, L333V
modifications: exemplary polypeptide
B8: 184 (protein)
chain: B1 chain with V184I, A308I, Y318F, A330M
modifications: exemplary polypeptide
B9: 193 (protein)
chain: B1 chain with V184I, A308I, Y318F, G356A
modifications: exemplary polypeptide
B10: 174 (protein)
chain: B1 chain with A308V
modifications: exemplary polypeptide
B11: 179 (protein)
chain: B1 chain with V184I, A308V, G354A
modifications: exemplary polypeptide
B12: 189 (protein)
chain: B1 chain with V184I, A308I, Y318F, G354L
modifications: exemplary polypeptide
B13: 182 (protein)
chain: B1 chain with Y170R, V184I, A308I, Y318F
modifications: exemplary polypeptide
B14: 180 (protein)
chain: B1 chain with Y170E, V184I, A308I, Y318F
modifications: exemplary polypeptide
B15: 177 (protein)
chain: B1 chain with A308I, G354A
modifications: exemplary polypeptide
B16: 175 (protein)
chain: B1 chain with Y318F, G354A
modifications: exemplary polypeptide
B17: 190 (protein)
chain: B1 chain with V184I, A308I, Y318F, G354S
modifications: exemplary polypeptide

One data set can be described thus: OTA detoxification activity assay (specific activity, fluorescence reduction ex/em 390/450 nm). The class given is biochemical. The conditions noted are these: pH 6.0; SEQ ID NO: 1 = 100%. The method, boiled down: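 Recombinant enzyme preparation with 200 ng/mL OTA in 100 mM sodium phosphate, at pH 6.0 and pH 7.5, 37° C. Degradation followed as the fall in fluorescence at ex/em 390/450 nm. Specific activity taken from the initial linear slope; one unit degrades 1 μmol OTA per min at a starting OTA of […].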
As to B1, the “Specific OTA detoxification activities in % compared to the enzyme of SEQ ID NO: 1, pH 6.0” value was found to be 27%.

As for B2, the “Specific OTA detoxification activities in % compared to the enzyme of SEQ ID NO: 1, pH 6.0” value was found to be 51%.

Take B3: the “Specific OTA detoxification activities in % compared to the enzyme of SEQ ID NO: 1, pH 6.0” value was determined as 69%.

Turning to B4, the “Specific OTA detoxification activities in % compared to the enzyme of SEQ ID NO: 1, pH 6.0” value was 138%.

With B5, the “Specific OTA detoxification activities in % compared to the enzyme of SEQ ID NO: 1, pH 6.0” value came out at 58%.

B6: the “Specific OTA detoxification activities in % compared to the enzyme of SEQ ID NO: 1, pH 6.0” value worked out at 142%.

For the molecule B7, the “Specific OTA detoxification activities in % compared to the enzyme of SEQ ID NO: 1, pH 6.0” value was 84%.

In the case of B8, the “Specific OTA detoxification activities in % compared to the enzyme of SEQ ID NO: 1, pH 6.0” value worked out at 103%.

In the case of B9, the “Specific OTA detoxification activities in % compared to the enzyme of SEQ ID NO: 1, pH 6.0” value worked out at 81%.

Turning to B10, the “Specific OTA detoxification activities in % compared to the enzyme of SEQ ID NO: 1, pH 6.0” value is on record as 45%.

With B11, the “Specific OTA detoxification activities in % compared to the enzyme of SEQ ID NO: 1, pH 6.0” value stood at 49%.

With B12, the “Specific OTA detoxification activities in % compared to the enzyme of SEQ ID NO: 1, pH 6.0” value is 82%.

For the molecule B13, the “Specific OTA detoxification activities in % compared to the enzyme of SEQ ID NO: 1, pH 6.0” value was found to be 98%.

B14: the “Specific OTA detoxification activities in % compared to the enzyme of SEQ ID NO: 1, pH 6.0” value stood at 91%.

As for B15, the “Specific OTA detoxification activities in % compared to the enzyme of SEQ ID NO: 1, pH 6.0” value stood at 94%.

Turning to B16, the “Specific OTA detoxification activities in % compared to the enzyme of SEQ ID NO: 1, pH 6.0” value was determined as 121%.

For the molecule B17, the “Specific OTA detoxification activities in % compared to the enzyme of SEQ ID NO: 1, pH 6.0” value came to 122%.

The data set is the same for the next values; noted with them: pH 7.5; SEQ ID NO: 1 = 100%.
As to B1, the “Specific OTA detoxification activities in % compared to the enzyme of SEQ ID NO: 1, pH 7.5” value came out at 53%.

Take B2: the “Specific OTA detoxification activities in % compared to the enzyme of SEQ ID NO: 1, pH 7.5” value is 58%.

Consider B3, for which the “Specific OTA detoxification activities in % compared to the enzyme of SEQ ID NO: 1, pH 7.5” value is listed as 30%.

Take B4: the “Specific OTA detoxification activities in % compared to the enzyme of SEQ ID NO: 1, pH 7.5” value was found to be 112%.

Take B5: the “Specific OTA detoxification activities in % compared to the enzyme of SEQ ID NO: 1, pH 7.5” value is 55%.

For the molecule B6, the “Specific OTA detoxification activities in % compared to the enzyme of SEQ ID NO: 1, pH 7.5” value is reported as 115%.

As to B7, the “Specific OTA detoxification activities in % compared to the enzyme of SEQ ID NO: 1, pH 7.5” value is 52%.

Regarding B8, the “Specific OTA detoxification activities in % compared to the enzyme of SEQ ID NO: 1, pH 7.5” value is listed as 76%.

On to B9, for which the “Specific OTA detoxification activities in % compared to the enzyme of SEQ ID NO: 1, pH 7.5” value is recorded as 85%.

On to B10, for which the “Specific OTA detoxification activities in % compared to the enzyme of SEQ ID NO: 1, pH 7.5” value was 59%.

For B11, the “Specific OTA detoxification activities in % compared to the enzyme of SEQ ID NO: 1, pH 7.5” value is 66%.

For the molecule B12, the “Specific OTA detoxification activities in % compared to the enzyme of SEQ ID NO: 1, pH 7.5” value was determined as 22%.

For the molecule B13, the “Specific OTA detoxification activities in % compared to the enzyme of SEQ ID NO: 1, pH 7.5” value was found to be 91%.

With B14, the “Specific OTA detoxification activities in % compared to the enzyme of SEQ ID NO: 1, pH 7.5” value is listed as 83%.

Regarding B15, the “Specific OTA detoxification activities in % compared to the enzyme of SEQ ID NO: 1, pH 7.5” value turned out to be 90%.

For B16, the “Specific OTA detoxification activities in % compared to the enzyme of SEQ ID NO: 1, pH 7.5” value is given as 108%.

Turning to B17, the “Specific OTA detoxification activities in % compared to the enzyme of SEQ ID NO: 1, pH 7.5” value stood at 85%.

A short description of the next data set: Enzymatic activity comparison: activity remaining after 65° C. for 10 min at pH 6.0, relative to SEQ ID NO: 1.
Conditions: not given
The class given is physicochemical. On the procedure:
To compare the temperature behavior and thermostability of selected enzymes to one another, enzyme was incubated at 65° C. for 10 min at pH 6.0. The enzymatic activity remaining after incubation was compared to the remaining activity of the enzyme of SEQ ID NO: 1 after incubation, the latter being set to 100%, see Table 16.
Consider B1, for which the “Enzymatic activity remaining after incubation, compared to SEQ ID NO: 1 (set to 100%)” value is on record as 53%.

As to B2, the “Enzymatic activity remaining after incubation, compared to SEQ ID NO: 1 (set to 100%)” value is listed as 36%.

With B3, the “Enzymatic activity remaining after incubation, compared to SEQ ID NO: 1 (set to 100%)” value is recorded as 41%.

Consider B4, for which the “Enzymatic activity remaining after incubation, compared to SEQ ID NO: 1 (set to 100%)” value worked out at 47%.

In the case of B5, the “Enzymatic activity remaining after incubation, compared to SEQ ID NO: 1 (set to 100%)” value was 75%.

With B6, the “Enzymatic activity remaining after incubation, compared to SEQ ID NO: 1 (set to 100%)” value worked out at 42%.

Turning to B7, the “Enzymatic activity remaining after incubation, compared to SEQ ID NO: 1 (set to 100%)” value is listed as 45%.

With B8, the “Enzymatic activity remaining after incubation, compared to SEQ ID NO: 1 (set to 100%)” value is listed as 46%.

Turning to B9, the “Enzymatic activity remaining after incubation, compared to SEQ ID NO: 1 (set to 100%)” value is 42%.

Regarding B10, the “Enzymatic activity remaining after incubation, compared to SEQ ID NO: 1 (set to 100%)” value is listed as 54%.

As for B11, the “Enzymatic activity remaining after incubation, compared to SEQ ID NO: 1 (set to 100%)” value came to 17%.

Consider B12, for which the “Enzymatic activity remaining after incubation, compared to SEQ ID NO: 1 (set to 100%)” value worked out at 19%.

With B13, the “Enzymatic activity remaining after incubation, compared to SEQ ID NO: 1 (set to 100%)” value was determined as 38%.

Consider B14, for which the “Enzymatic activity remaining after incubation, compared to SEQ ID NO: 1 (set to 100%)” value worked out at 28%.

Regarding B15, the “Enzymatic activity remaining after incubation, compared to SEQ ID NO: 1 (set to 100%)” value is 20%.

On to B16, for which the “Enzymatic activity remaining after incubation, compared to SEQ ID NO: 1 (set to 100%)” value was determined as 13%.

On to B17, for which the “Enzymatic activity remaining after incubation, compared to SEQ ID NO: 1 (set to 100%)” value came out at 15%.

The values are drawn from patent US20240352438A1, “MEANS AND METHODS FOR DETOXIFYING OCHRATOXIN A” (DSM Austria GmbH, priority 2021, published 2024).
